Measured values published in patent US20050158748.

Legend:
[1] = target: ribosomal protein S6 (in purified 40S ribosomal subunits from liver)
[2] = target: synthetic peptide representing C-terminus of S6 protein

B1: EE-tag/p70β^S6k (p70β-II isoform, N-terminal EE-tag) (protein)
chain: MAAVFDLDLETEEGSEGEGEPELSPADACPLAELRAAGLEPVGHYEEVELTETSVNVGPERIGPHCFELLRVLGKGGYGKVFQVRKVQGTNLGKIYAMKVLRKAKIVRNAKDTAHTRAERNILESVKHPFIVELAYAFQTGGKLYLILECLSGGELFTHLEREGIFLEDTACFYLAEITLALGHLHSQGIIYRDLKPENIMLSSQGHIKLTDFGLCKESIHEGAVTHTFCGTIEYMAPEILVRSGHNRAVDWWSLGALMYDMLTGSPPFTAENRKKTMDKIIRGKLALPPYLTPDARDLVKKFLKRNPSQRIGGGPGDAADVQRHPFFRHMNWDDLLAWRVDPPFRPCLQSEEDVSQFDTRFTRQTPVDSPDDTALSESANQAFLGFTYVAPSVLDSIKEGFSFQPKLRSPRRLNSSPRVPVSPLKFSPFEGFRPSPSLPEPTELPLPPLLPPPPPSTTAPLPIRPPSGTKKSKRGRGRPGR
[1]
  in vitro kinase reaction: phosphorylation of S6 protein in 40S subunits: p70β^S6k (p70β-II isoform) phosphorylates the S6 protein in vitro nearly as efficiently as p70α^S6k
[2]
  in vitro kinase reaction: phosphorylation of the synthetic peptide: p70β^S6k (p70β-II isoform) also phosphorylates this peptide but with slightly lower efficiency than observed with p70α^S6k
